“Also recorded” adds a separate entry of the source.
Columns and labels:
[1] = system: HEK293 GP73-His full length cells; assay: Furin blockage experiment: sGP73 in cell culture supernatant (Up-converting Phosphor Technology); type: cell-based, human; conditions: 31.3 ug/ml or 62.5 ug/ml; after 96 hours
Procedure: FIG. 23 Measurement of sGP73 in cell culture supernatant after treatment of 293HEK GP73-His full length cells with Bevacizumab or G2-2opti (IgG1). Furin cleavage is a prerequisite for sGP73 to appear in the supernatant.
HEK293 GP73-His full length cells were seeded in 96 well plates 1500 cells per well and cultured overnight. Next day, medium was changed and cells were treated with Bevacizumab 31.3 ug/ml, Bevacizumab 62.5 ug/ml, G2-2opti(IgG1) 31.3 ug/ml or G2-2opti (IgG1) 62.5 ug/ml. To examine furin cleavage inhibition the respective antibody concentrations were chosen in a range that had no impact on cell proliferation. After 96 hours the supernatants were collected for measurement of sGP73 exploiting the Up-converting Phosphor Technology (UCP) and the remaining cell layer was used in a proliferation assay with PrestoBlue reagent (Thermofisher) described in Example 8.
For sGP73 detection each supernatant was diluted 1:1 in Hotgen dilution buffer containing an anti GP73 UCP labelled antibody. […] GP73 concentrations were deduced from differences of light emission at the C and T line measured by inserting the test cassette into the Hotgen Up-converting Phosphor Technology (UCP) Analyser.

[2] = system: HuH7 (human hepatocellular carcinoma); assay: Cell viability / proliferation with PrestoBlue reagent; type: cell-based; conditions: 0.125 mg/ml to 2 mg/ml, after 72 hrs
Procedure: FIG. 13A Proliferation of HuH7 cells (human hepatocellular carcinoma) after treatment with different antibodies. HuH7 cells were treated with G2-2, G2-2 plus Cetuximab, mG2-2, mG2-2 plus Cetuximab, Cetuximab or control antibody each in increasing concentrations from 0.125 mg/ml to 2 mg/ml. Proliferating cells were measured after 72 hrs. […] This effect was independent of the Fc part i.e. human IgG1 in G2-2 or murin IgG2a in mG2-2 as described in Example 8.
FIG. 13B Proliferation of HuH7 cells (human hepatocellular carcinoma), 4T1 cells (murin breast carcinoma) and CaCo2 cells (human colorectal carcinoma) after treatment with different antibodies. The three cell lines were treated with G2-1, G2-1 plus Cetuximab, Cetuximab, Bevacizumab or Bevacizumab plus Cetuximab 2 mg/ml total. Proliferating cells were measured after 72 hrs.
Cells from the cell lines HuH7 (human hepatocellular carcinoma), 4T1 (murin breast carcinoma) and CaCo2 (human colorectal carcinoma) were cultured under standard conditions in Dulbecco's modified Eagle Medium (DMEM) supplemented with 10% fetal calf serum (FCS) at 37° C. with 5% CO2. […] Fluorescence was read at 615 nm to quantify cell viability. […]
To test the effect of G2-1 on different cell lines, HuH7, 4T1 and CaCo2 cells were transferred to 96 well plates. […] Cell viability was quantified after 72 hours using PrestoBlue reagent and measuring the fluorescence at 615 nm.

HuH7 cells = assay: Internalization of pHrodo Green labeled antibodies after pre-incubation with conditioned media containing soluble GP73; type: cell-based, human; conditions: 10 ug/ml pHrodo Green labeled antibody pre-incubated over night, 24 h at 37° C.
Procedure: Antibody internalization was measured by FACS using the pH-sensitive dye pHrodo Green coupled to each antibody. […] The internalization of G2-2 that binds to rGP73 is not altered as described in Example 6.
Labeled antibodies were purified by size exclusion (40K MWCO). A non binding Isotype Antibody that was not labeled with pHrodo® Green STP Ester (Iso.) was used as control for background fluorescence. 10 ug/ml of each antibody was pre-incubated over night at 4° C. with either fresh culture media or conditioned media. As conditioned media served either supernatant from HEK 293 or HEK 293 GP73-myc cells cultured for 72 hours, that was dialyzed (10 k MWCO) against 1 L fresh media each. To confirm the presence of secreted soluble GP73 after dialysis supernatants were analysed by Western Blot using an anti-myc antibody. 300 ul/well of each pre-incubated antibody was given to 0.6×10^6HuH7 cells growing in 24 well plates for 24 h at 37° C. and 5% CO2. Cells were washed and analysed by FACS.

Row | Molecule | sGP73 in cell culture supernatant [1] | also measured
1 | Bevacizumab: the isotype control [reference compound] | no influence on sGP73 levels | 
2 | mG2-2: G2-2 variable regions with murine IgG2a heavy chain and human Igk light chain constant regions (antibody) heavy: EVQLLQSGGGVVQPGRSLRLSCAASGFTFSSYGMSWVRQAPGKGLEWVAVISYDGSNKYYADSVKGRFTISRDNSKNTLYLQMNSLRAEDTAVYYCAREGSAGMDVWGQGTTVTVSSASTTAPSVYPLAPVCGDTTGSSVTLGCLVKGYFPEPVTLTWNSGSLSSGVHTFPAVLQSDLYTLSSSVTVTSSTWPSQSITCNVAHPASSTKVDKKIEPRGPTIKPCPPCKCPAPNLLGGPSVFIFPPKIKDVLMISLSPIVTCVVVDVSEDDPDVQISWFVNNVEVHTAQTQTHREDYNSTLRVVSALPIQHQDWMSGKEFKCKVNNKDLPAPIERTISKPKGSVRAPQVYVLPPPEEEMTKKQVTLTCMVTDFMPEDIYVEWTNNGKTELNYKNTEPVLDSDGSYFMYSKLRVEKKNWVERNSYSCSVVHEGLHNHHTTKSFSRTPGK light: DIQMTQPSSLSASPGASASLTCTLRSDISVGFHRIYWYQQKPGSPPQYLLRYKSDSDKQQGSGVPSRFSGSKDASANAGILLISGLQSDDEADYYCVIWHTSGVVFGGGTKVEIKRTVAAPSVFIFPPSDEQLKSGTASVVCLLNNFYPREAKVQWKVDNALQSGNSQESVTEQDSKDSTYSLSSTLTLSKADYEKHKVYACEVTHQGLSSPVTKSFNRGEC |  | cell proliferation / cell viability [2]: reduced depending on antibody concentration
3 | G2-2opti (IgG1): G2-2 optimized for expression in mammalian cells by directed mutagenesis of framework; CDRs untouched (antibody, V domains shown) VH: QVQLVQSGGGVVQPGRSLRLSCAASGFTFSSYGMHWVRQAPGKGLEWVAVISYDGSNKYYADSVKGRFTISRDNSKNTLYLQMNSLRAEDTAVYYCAREGSAGMDVWGQGTTVTVSS VL: QAVLTQPSSLSASPGASASLTCTLRSDISVGFHRIYWYQQKPGSPPQYLLRYKSDSDKQQGSGVPSRFSGSKDASANAGILLISGLQSDDEADYYCVIWHTSGVVFGGGTKLTVL | decreases sGP73 secretion into supernatant; also recorded: reduce GP73 concentration | 
4 | G2-4: hybridoma antibody against peptide AA 347-366 of human GP73 (sGP73); VH/VL SEQ ID NOs: 18 and 19 (antibody, V domains shown, G2-4 heavy chain variable region (VH); G2-4 light chain variable region (VL)) VH: QVQLEESGGGLVQPGGSLRLSCATSGFTFTDYYMSWVRQPPGKALEWLGFIRNKAKGYTTEYSASVKGRFTISRDNSQSILYLQMNTLRAEDSATYYCARDPSTNYWYFDVWGAGTTVTVSS VL: DIVLTQSPSSLAVSAGEKVTMTCKSSQSLLNSRTRKNYLAWYQQKPGQSPKLLIYWASTRESGVPDRFTGSGSGTDFTLTISSVQAEDLAVYYCKQSYNLYTFGGGTKLEIKR |  | effect of conditioned media containing soluble GP73 on antibody internalization / cell surface binding (HuH7 cells): reduces antibody binding; also recorded: reduces internalization

Reference: patent US11697680B2, “Anti-GP73 antibodies and immunoconjugates” (CUREAB GMBH, priority 2016, dated 2023)
